# T1: rROBO4−ECD (ヒトROBO4細胞外領域ポリペプチド) (human, UniProt Q8WZ75 28-461)
# T1 construct: It was cloned in pEF6/V5-His-TOPO; also called ヒトROBO4−ECD; rROBO4-ECD
# T1 sequence: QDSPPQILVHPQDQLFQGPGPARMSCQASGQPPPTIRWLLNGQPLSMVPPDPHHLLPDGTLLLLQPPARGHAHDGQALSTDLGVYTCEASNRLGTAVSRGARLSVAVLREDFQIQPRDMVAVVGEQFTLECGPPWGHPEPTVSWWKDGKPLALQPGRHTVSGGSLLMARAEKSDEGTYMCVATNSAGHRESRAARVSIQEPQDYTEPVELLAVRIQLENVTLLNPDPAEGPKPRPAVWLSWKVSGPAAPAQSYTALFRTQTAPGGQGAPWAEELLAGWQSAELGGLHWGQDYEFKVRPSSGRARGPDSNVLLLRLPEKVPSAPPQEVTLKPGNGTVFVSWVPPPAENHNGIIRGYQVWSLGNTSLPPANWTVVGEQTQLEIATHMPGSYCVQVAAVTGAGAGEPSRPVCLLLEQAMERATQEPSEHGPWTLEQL
# B1: ヒト化MAb1抗体 H−1140 (antibody, human IgG2, kappa, V domains shown)
# VH: EVQLVESGGGLVQPGGSLRLSCAASGFTFSTYAMSWVRQAPGKGLEWVATISQGGTYTYYPDSVKGRFTISRDNAKNTLYLQMNSLRAEDTAVYYCARLIYYDYLDYWGQGTLVTVSS
# VL: DIVMTQSPLSLPVTLGEPASISCRSSQSLENSNGNTYLNWYLQKPGQSPQLLIYRVSNRFSGVPDRFSGSGSGTDFTLKISRVEAEDVGVYYCLQVTHVPWTFGPGTKVDIKR
# notes: Humanised IgG2 / kappa; also called H-1140; hMAb1-H2 / hMAb1-L1
# B2: ヒト化MAb1抗体 H−1040 (antibody, human IgG2, kappa, V domains shown)
# VH: EVQLVESGGGLVQPGGSLRLSCAASGFTFSTYAMSWVRQAPGKGLEWVATISNGGTYTYYPDSVKGRFTISRDNAKNTLYLQMNSLRAEDTAVYYCARLIYYDYLDYWGQGTLVTVSS
# VL: DIVMTQSPLSLPVTLGEPASISCRSSQSLENSNGNTYLNWYLQKPGQSPQLLIYRVSNRFSGVPDRFSGSGSGTDFTLKISRVEAEDVGVYYCLQVTHVPWTFGPGTKVDIKR
# notes: Humanised IgG2 / kappa; also called H-1040; hMAb1-H1 / hMAb1-L1
# B3: ヒト化MAb1抗体 H−2040 (antibody, human IgG2, kappa, V domains shown)
# VH: EVQLVESGGGLVQPGGSLRLSCAASGFTFSTYAMSWVRQAPGKRLEWVATISNGGTYTYYPDSVKGRFTISRDNAKNTLYLQMNSLRAEDTAVYYCARLIYYDYLDYWGQGTLVTVSS
# VL: DIVMTQSPLSLPVTLGEPASISCRSSQSLENSNGNTYLNWYLQKPGQSPQLLIYRVSNRFSGVPDRFSGSGSGTDFTLKISRVEAEDVGVYYCLQVTHVPWTFGPGTKVDIKR
# notes: Humanised IgG2 / kappa; also called H-2040; hMAb1-H3 / hMAb1-L1
# Target: T1, rROBO4−ECD (ヒトROBO4細胞外領域ポリペプチド)
# Assay: SPR, Biacore 3000; antibody captured by anti-human IgG on CM5 chip, rROBO4-ECD (0.1-200 nM) as analyte, 1:1 model
row,Binder,Kd [nM]
1,B1,3.9
2,B2,0.41
3,B3,0.4
